# Test results as given in PMC8291497 (ACS Chemical Biology, 2021).
# Substitutions are numbered along the chain they refer to. Numbers in names are those of the source. Where a SMILES comes first, the peptide text is derived from it. Where no end group is shown, it is not given here. [ ]: non-standard residue; d: D form. The star is where a group is joined. Dansyl = CN(C)c1cccc2c(S(=O)(=O)*)cccc12; PhLac = O=C(O)[C@@H](O)Cc1ccccc1
# B1: dansyl-APP F764A (peptide)
# peptide: Dansyl-NGYENPTYKAFE
# B2: dansyl-APP Y757F (peptide)
# peptide: Dansyl-NGFENPTYKFFE
# B3: dansyl-APP Y762F (peptide)
# peptide: Dansyl-NGYENPTFKFFE
# B4: dansyl-APP K763G (peptide)
# peptide: Dansyl-NGYENPTYGFFE
# B5: dansyl-APP F765A (peptide)
# peptide: Dansyl-NGYENPTYKFAE
# B6: dansyl-APP K763A (peptide)
# peptide: Dansyl-NGYENPTYAFFE
# B7: dansyl-APP P760A (peptide)
# peptide: Dansyl-NGYENATYKFFE
# B8: dansyl-APP F765G (peptide)
# peptide: Dansyl-NGYENPTYKFGE
# B9: dansyl-APP P760G (peptide)
# peptide: Dansyl-NGYENGTYKFFE
# B10: dansyl-APP F764G (peptide)
# peptide: Dansyl-NGYENPTYKGFE
# Columns and labels:
# [1] = biological target: T1, Mint2 PARM 364-570 (Y524W), pWT PARM (PTB domain and ARM linker) (Homo sapiens, UniProt Q99767, Y524W); experiment: Stopped flow binding kinetics, APP peptides to PARM (pseudo-wild type)
# T1 construct: made in house; host or cells: Escherichia coli BL21(DE3)pLysS
# T1 sequence (Q99767 364-570 Y524W): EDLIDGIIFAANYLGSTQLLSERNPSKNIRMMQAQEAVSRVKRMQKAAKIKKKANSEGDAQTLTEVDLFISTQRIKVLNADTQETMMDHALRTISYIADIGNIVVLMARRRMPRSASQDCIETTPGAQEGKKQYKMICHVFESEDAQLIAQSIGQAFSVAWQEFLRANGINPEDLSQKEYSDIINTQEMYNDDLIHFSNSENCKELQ
# Method: (§1) Kinetic binding rate constants were obtained using an upgraded SX17 stopped flow spectrometer (Applied Photophysics), and all experiments were conducted at 25 °C in 500 mM NaCl and 25 mM HEPES (pH 7.4). The relatively high NaCl concentration was used to improve the solubility of the proteins. The change in tryptophan fluorescence was measured using a band-pass filter (excitation at 280 nm and emission at 330 ± 30 nm) when mixing varying concentrations (2–50 μM) of the dansyl peptides with 1 μM protein or 0.5 μM semisynthetic proteins. […] For PTB variants, we used the kobs value from the fast kinetic phase for the analysis. […] We report the errors in kon and koff from the curve fitting. […] For these koff determinations, we report the standard error of the mean of three replicates. Φ values were defined as ΔΔGTS/ΔΔGeq, where ΔΔGTS = RT ln(kon^WT/kon^mut.) and ΔΔGeq = RT ln(Kd^mut./Keq^WT). Calculated coupling free energies were defined as ΔΔΔGEq = RT ln(Kd^mut.:WTKd^WT:mut./Kd^WT:WTKd^mut.:mut.) or ΔΔΔGTS = RT ln(kon^WT:WTkon^mut.:mut./kon^mut.:WTkon^WT:mut.) as previously described.[27] Propagated errors are reported.
# [2] = biological target: T2, Mint2 PARM 364-570 (Y524W, Y543A) (Homo sapiens, UniProt Q99767, Y524W/Y543A); experiment: Stopped flow binding kinetics, APP peptides to PARM^Y543A; parameters: made in house; host or cells: Escherichia coli BL21(DE3)pLysS
# T2 sequence (Q99767 364-570 Y524W/Y543A): T1 sequence (Q99767 364-570 Y524W) with Y180A
# Method: as §1
# [3] = biological target: T3, PARM-pWT (364-570; R455K, C483A, C501A, Y524W, C566A) (Homo sapiens, UniProt Q99767, C483A/C501A/C566A/R455K/Y524W); experiment: Stopped flow binding kinetics, APP A-to-E variants to PARM-pWT
# T3 construct: made in house; host or cells: semisynthesis, three-segment approach (expressed fragments plus synthetic segment)
# T3 sequence (Q99767 364-570 R455K/C483A/C501A/Y524W/C566A): T1 sequence (Q99767 364-570 Y524W) with R92K, C120A, C138A, C203A
# Method: as §1
# [4] = biological target: T4, Mint2 PARM 364-570 (Y524W, Y543E) (Homo sapiens, UniProt Q99767, Y524W/Y543E); experiment: biochemical
# T4 sequence (Q99767 364-570 Y524W/Y543E): T1 sequence (Q99767 364-570 Y524W) with Y180E
# Mint2 PARMWT 364-570 = Mint2 PARMWT 364-570 (Homo sapiens, UniProt Q99767); experiment: biochemical
# Chain of Mint2 PARMWT 364-570 (Q99767 364-570): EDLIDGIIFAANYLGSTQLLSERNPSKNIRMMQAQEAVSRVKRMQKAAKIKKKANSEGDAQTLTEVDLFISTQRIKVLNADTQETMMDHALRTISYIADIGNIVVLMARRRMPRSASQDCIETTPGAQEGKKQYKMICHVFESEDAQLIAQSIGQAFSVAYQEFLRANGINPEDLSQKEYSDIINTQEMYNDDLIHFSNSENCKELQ
# [5] = biological target: T2, Mint2 PARM 364-570 (Y524W, Y543A); experiment: biochemical
# [6] = biological target: T5, Mint2 PTB 364-538 (without the ARM linker) (Homo sapiens, UniProt Q99767, Y524W); experiment: Stopped flow binding kinetics, APP peptides to PTB
# T5 construct: made in house; host or cells: Escherichia coli BL21(DE3)pLysS
# T5 sequence (Q99767 364-538 Y524W): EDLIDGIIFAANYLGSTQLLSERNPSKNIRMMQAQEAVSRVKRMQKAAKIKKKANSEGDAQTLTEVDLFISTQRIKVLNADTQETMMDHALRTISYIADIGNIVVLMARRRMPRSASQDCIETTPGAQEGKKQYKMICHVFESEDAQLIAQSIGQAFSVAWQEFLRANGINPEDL
# Method: as §1
# Mint2 PTB 364-538 = Mint2 PTB 364-538 (Homo sapiens, UniProt Q99767, Y524W); experiment: biochemical
# PARM^Y543E = PARM^Y543E (human, UniProt Q99767 364-570, Y524W | Y543E); experiment: stopped-flow fluorescence kinetics; details: both partners purified
# Chain of PARM^Y543E (Q99767 364-570 Y524W/Y543E): as the sequence (Q99767 364-570) above, with Y161W, Y180E counted along it
# [7] = biological target: PTB without the ARM linker (Mint2 residues 364-538) (human, UniProt Q99767 364-538, Y524W); experiment: stopped-flow fluorescence kinetics; details: both partners purified
# [8] = biological target: pseudo-wild type (pWT) PARM domain of Mint2 (residues 364-570, Y524W) (human, UniProt Q99767 364-570, Y524W); experiment: stopped-flow fluorescence kinetics; details: both partners purified
# PARM^Y543A = PARM^Y543A (human, UniProt Q99767 364-570, Y524W | Y543A); experiment: stopped-flow fluorescence kinetics; details: both partners purified
# Chain of PARM^Y543A (Q99767 364-570 Y524W/Y543A): as the sequence (Q99767 364-570) above, with Y161W, Y180A counted along it
Molecule,binding result (PARM^Y543E),binding result [7],binding result [8],binding result (PARM^Y543A),also measured
C[C@@H](O)[C@H](NC(=O)[C@@H]1CCCN1C(=O)[C@H](CC(N)=O)NC(=O)[C@H](CCC(=O)O)NC(=O)[C@H](Cc1ccc(O)cc1)NC(=O)CNC(=O)[C@H](CC(N)=O)NC(=O)CNC(=O)[C@H](CC(N)=O)NC(=O)[C@H](CC(N)=O)NS(=O)(=O)c1cccc2c(N(C)C)cccc12)C(=O)N[C@@H](Cc1ccccc1)C(=O)N[C@@H](CCCCN)C(=O)N[C@@H](Cc1ccccc1)C(=O)N[C@@H](Cc1ccccc1)C(=O)N[C@@H](CCC(=O)O)C(=O)O [Peptide Y762F],–,–,–,–,Kd [1]: 4 µM
C[C@@H](O)[C@H](NC(=O)[C@@H]1CCCN1C(=O)[C@H](CC(N)=O)NC(=O)[C@H](CCC(=O)O)NC(=O)[C@H](Cc1ccc(O)cc1)NC(=O)CNC(=O)[C@H](CC(N)=O)NC(=O)CNC(=O)[C@H](CC(N)=O)NC(=O)[C@H](CC(N)=O)NS(=O)(=O)c1cccc2c(N(C)C)cccc12)C(=O)N[C@@H](Cc1ccc(O)cc1)C(=O)NCC(=O)N[C@@H](Cc1ccccc1)C(=O)N[C@@H](Cc1ccccc1)C(=O)N[C@@H](CCC(=O)O)C(=O)O [Peptide K763G],–,–,–,–,Kd [2]: 10 ± 0.3 µM
C[C@@H](O)[C@H](NC(=O)[C@@H]1CCCN1C(=O)[C@H](CC(N)=O)NC(=O)[C@H](CCC(=O)O)NC(=O)[C@H](Cc1ccc(O)cc1)NC(=O)CNC(=O)[C@H](CC(N)=O)NC(=O)CNC(=O)[C@H](CC(N)=O)NC(=O)[C@H](CC(N)=O)NS(=O)(=O)c1cccc2c(N(C)C)cccc12)C(=O)N[C@@H](Cc1ccc(O)cc1)C(=O)N[C@@H](CCCCN)C(=O)N[C@@H](Cc1ccccc1)C(=O)O[C@@H](Cc1ccccc1)C(=O)N[C@@H](CCC(=O)O)C(=O)O [Peptide F765φ] (Dansyl-NNGNGYENPTYKF[PhLac]E-OH; N-terminus and C-terminus assumed),–,–,–,–,"Kd [3]: 40 ± 9 µM; koff [3]: 27 s⁻¹; F (Φ value, ΔΔGTS/ΔΔGeq) ([3]; APP A-to-E variant vs Dansyl-APPWT): ~0; kon ([3]; pH 7.4): 690000 M⁻¹ s⁻¹"
"Dansyl-NNG-NGψENPTYKFFE [Peptide Y757ψ, dansyl-APP peptide with amide-to-ester backbone modification at Y757]",–,–,–,–,kinetic transient in the stopped flow experiment ([3]; most likely due to a kobs outside the range of the instrument (>300 s^–1)): did not give a kinetic transient
NGYENPTYKFFE [APPWT (12-mer)],–,–,–,–,Ki [4]: 1.1 µM; Ki (Mint2 PARMWT 364-570): 3.2 µM; Ki [5]: 1.1 µM
C[C@@H](O)[C@H](NC(=O)[C@@H]1CCCN1C(=O)[C@H](CC(N)=O)NC(=O)[C@H](CCC(=O)O)NC(=O)[C@H](Cc1ccccc1)NC(=O)CNC(=O)[C@H](CC(N)=O)NC(=O)CNC(=O)[C@H](CC(N)=O)NC(=O)[C@H](CC(N)=O)NS(=O)(=O)c1cccc2c(N(C)C)cccc12)C(=O)N[C@@H](Cc1ccc(O)cc1)C(=O)N[C@@H](CCCCN)C(=O)N[C@@H](Cc1ccccc1)C(=O)N[C@@H](Cc1ccccc1)C(=O)N[C@@H](CCC(=O)O)C(=O)O [Peptide Y757F],–,–,–,–,Kd [6]: 0.6 µM
C[C@H](NC(=O)[C@H](Cc1ccc(O)cc1)NC(=O)[C@@H](NC(=O)[C@@H]1CCCN1C(=O)[C@H](CC(N)=O)NC(=O)[C@H](CCC(=O)O)NC(=O)[C@H](Cc1ccc(O)cc1)NC(=O)CNC(=O)[C@H](CC(N)=O)NC(=O)CNC(=O)[C@H](CC(N)=O)NC(=O)[C@H](CC(N)=O)NS(=O)(=O)c1cccc2c(N(C)C)cccc12)[C@@H](C)O)C(=O)N[C@@H](Cc1ccccc1)C(=O)N[C@@H](Cc1ccccc1)C(=O)N[C@@H](CCC(=O)O)C(=O)O [Peptide K763A],–,–,–,–,Ki (Mint2 PTB 364-538): 0.8 µM
B1,binds,binds,binds,binds,–
B2,binds,binds,binds,binds,–
B3,binds,binds,binds,binds,–
B4,binds,binds,binds,binds,–
B5,binds,binds,binds,binds,–
B6,binds,binds,binds,binds,–
B7,binds,binds,binds,binds,–
B8,binds,binds,binds,binds,–
B9,binds,binds,binds,binds,–
B10,binds,binds,binds,binds,–
